Source: FireProtDB (doi:10.1021/bi00017a003)

B1: Subtilisin-chymotrypsin inhibitor-2A, P01053 (parent)
chain: MSSVEKKPEGVNTGAGDRHNLKTEWPELVGKSVEEAKKVILQDKPEAQIIVLPVGTIVTMEYRIDRVRLFVDKLDNIAQVPRVG

Variants of: B1
Conditions: Hordeum vulgare; pH 6.3; 25 °C; GdnHCl; Fluorescence; MES 50 mM; structure 2CI2; whole UniProt chain shown

Variant | ddG of mutation (higher = less stable) | denaturant m value | denaturant midpoint (higher = more stable)
MSSVEKKPEGVNTGAGDRHNLKTEWPELVGKSVEEAKKVILQDKPEAQIIVLPVGTIVTMEYRIDRVRLFVDKLDNIAQAPRVG | 1.51 kcal/mol | 1.92 kcal/mol/M | 3.22 M
MSSVEKKPEGVNTGAGDRHNLKTEWPELVGKSVEEAKKVILQDKPEAQIIVLPVGTIVTMEYRIDRVRLFVDKLDNIAQGPRVG | 3.24 kcal/mol | 2.61 kcal/mol/M | 2.33 M
MSSVEKKPEGVNTGAGDRHNLKTEWPELVGKSVEEAKKVILQDKPEAQIIVLPVGTIVTMEYRIDRVRLFVDKLDNIAQTPRVG | 0.38 kcal/mol | 1.63 kcal/mol/M | 3.8 M
MSSVEKKPEGVNTGAGDRHNLKTEWPELVGKSVEEAKKVILQDKPEAQIIVLPVGTIVTMEYRIDRVRLFVDKLDNIAQVPRAG | 1.45 kcal/mol | 1.95 kcal/mol/M | 3.25 M
MSSVEKKPEGVNTGAGDRHNLKTEWPELVGKSVEEAKKVILQDKPEAQIIVLPVGTIVTMEYRIDRVRLFVDKLDNIAQVPRGG | 3.5 kcal/mol | 2.1 kcal/mol/M | 2.2 M
MSSVEKKPEGVNTGAGDRHNLKTEWPELVGKSVEEAKKVILQDKPEAQIIVLPVGTIVTMEYRIDRVRLFVDKLDNIAQVPRTG | 1.15 kcal/mol | 1.79 kcal/mol/M | 3.41 M
MSSVEKKPEGVNTGAGDRHNLKVEWPELVGKSVEEAKKVILQDKPEAQIIVLPVGTIVTMEYRIDRVRLFVDKLDNIAQVPRVG | 0.32 kcal/mol | 1.67 kcal/mol/M | 3.83 M
MSSVEKKPEGVNTGAGDRHNLKAEWPELVGKSVEEAKKVILQDKPEAQIIVLPVGTIVTMEYRIDRVRLFVDKLDNIAQVPRVG | 0.85 kcal/mol | 1.83 kcal/mol/M | 3.56 M
MSSVEKKPEGVNTGAGDRHNLKGEWPELVGKSVEEAKKVILQDKPEAQIIVLPVGTIVTMEYRIDRVRLFVDKLDNIAQVPRVG | 1.16 kcal/mol | 1.95 kcal/mol/M | 3.4 M
MSSVEKKPEGVNTGAGDRHNLKTEWPELVGKSVEEAKKVILQDKPEAQIIVLPGGTIVTMEYRIDRVRLFVDKLDNIAQVPRVG | 2.43 kcal/mol | 2 kcal/mol/M | 2.75 M
MSSVEKKPEGVNTGAGDRHNLKTEWPELVGKSVEEAKKVILQDKPEAQIIVLPTGTIVTMEYRIDRVRLFVDKLDNIAQVPRVG | 1.03 kcal/mol | 1.65 kcal/mol/M | 3.47 M
MSSVEKKPEGVNTGAGDRHNLKTEWPELVGKSVEEAKKVILQDKPEAQIIVLPVGTIVTMEYRIDRVRLFVDKLDNIGQVPRVG | 1.88 kcal/mol | 2.19 kcal/mol/M | 3.03 M
MSSVEKKPEGVNTGAGDRHNLKTEWPELVGKSVEEAKKVILQDKPEAQIGVLPVGTIVTMEYRIDRVRLFVDKLDNIAQVPRVG | 3.52 kcal/mol | 2.13 kcal/mol/M | 2.19 M
MSSVEKKPEGVNTGAGDRHNLKTEWPELVGKSVEEAKKVILQDKPEAQIAVLPVGTIVTMEYRIDRVRLFVDKLDNIAQVPRVG | 2.12 kcal/mol | 2.22 kcal/mol/M | 3.91 M
MSSVEKKPEGVNTGAGDRHNLKTEWPELVGKSVEEAKKVILQDKPEAQIVVLPVGTIVTMEYRIDRVRLFVDKLDNIAQVPRVG | -0.08 kcal/mol | 1.77 kcal/mol/M | 4.04 M
